# Assay: yeast display, Sf9 membrane polyspecificity reagent, FACS + sequencing; frameworks hold sequencing errors
# Outline: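 Using colony PCR, genes from sorted yeast display clones were amplified, then sequenced on MiSeq at 2 × 250 and filtered by CDR length. The clones had been stained with 10% biotinylated, detergent-solubilized Sf9 membrane reagent for 1 hour at 4 °C and sorted by FACS into low and high (top ~1%) gates on anti-HA and streptavidin fluorescence. Polyreactivity labels come from the gate of origin.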
row,Sequence,polyreactivity (PSR sort gate)
1,QVQLVESGGGLVQAGGSLRLSCAASGITFFSYAMGWYREAPGKERELVAAISRRTGSTYYADSVKGRFTISRDNGMNTVFLQMMSLKPEDTAVYYCAARLPGTRYPYDYWGQGTQVTVSS,high polyreactivity
2,QVQLVESGGGLVQAGGSLRLSCAASGSIFSRNAMAWYRQAPGKERELVAAISGSGGSTYYADSVKGRFTISRDNAKNTVYLQMNSLKPEDTAVYYCNKFGYHREYDYWGQGTQVTVSS,low polyreactivity
3,QVQLVESGGGLVQAGGILRLSCASSGRIFTFYAMGWYRQAPGKERELVAAISSGGSTYYADSVKGLFTISRDNAKNTVYLQMNSLKPEDTAVYYCAAEPVWYADYDYWGQGTQVTVSS,low polyreactivity
4,QVQLVESGGGLVQAGGSLRLSCAASGFTFSVYTMGWYRQAPGNERELVAALRVSSGGTFYADSVKGRFTISRDNAKNTVYLQRNSLKPEDTAVYYCAVDRYTYDPIFSVVRRYDYWGQGTQVTVSS,high polyreactivity
5,QVQLVESGGGLVQAGGSLRLSCAASGFTVSYYVMGWYRQAPGKERELVAGISWSGVSTYYADSVKGRFTISRDNAKNTVYLQMNSLKPEDTAVYYCAAGYDFSFFVPVRYTEYDYWGQGTQVTVSS,high polyreactivity
6,QVQLVESGGGLVQAGGSLRLSCAASGFIFDQYAMGWYRQAPGKERELVATINWSGGRTYYADSVKGRFTISRDNAKNTVYLQMNSLKPEDTAVYYCAADTYRTKLHSFRTGSGYDYWGQGTQVTVSS,low polyreactivity
7,QVQLVESGAGIVQAGGSLRLSCAASGLTFTYYAMGWYRQAPGKERELVAAISRSGTGTYYADSVKGRFTISRDNAKNTVYLQMNSLTAEDTAVYYCNAVVRTYGYDYWGQGTQVTVSS,high polyreactivity
8,QVQLVESGGGLVQAGGSLRLSCAASGSIFFLYAMGWYRQAPGKERELVAAISVGGGSTYYADSVKGRFTFSRDNAKNTVYLHMNSLKPEDTAVYYCAALSKTRGGYWGQGTQVTVSS,high polyreactivity
9,QVQLVESGGGLVQAGCSLRLSCSASGLTFYANAMGWYRQAPGKERELVAAISKSGGNTYYAYSVKGRFTISRDNAKNTVYLQMNSLKPEDTAVYYCAVGYPRGYVDVDSWGQGTQVTVSS,high polyreactivity
10,QVQLVETGGGLVQAGGTLRLAVLPPDLPSTLNDMGWYRQATGKERELVAAITRGGSTNYADSVKGRFTISRDNAKNTVYLLMNSLKPEDTAVYYCAARSAGWRDGGDYWGQGTQVTVSS,low polyreactivity
11,QVQLVESGGGLVQAGGSLRLSCAASGRTFPYNAMGRYRQAPGKERELVAAISGRGGSTYYADSVKGRFTISRDNAKNTVYLQMNSLKPEDTAVYYCAVYTIYGFYYWGQGTQVTVSS,high polyreactivity
12,QVQLVESGGGLVQAGGSLRLSCAASGRTFSRNAMGWYRQAPGKERELVAAISRSGGSTYYADSVKGRFTISRDNAKNTVYFQLNSLKPEDTAVYYCKADVYSTYYNYNYWGQGTQVTVSS,high polyreactivity
13,QVQLVESGGGIVQAGGSLRLICAASGLILYGYTMGWYRQAPGKDRQLVAAISRGGGGTYYADSVKGRFTISRDNVKNTVYLQINSLKPEDTAVYYCAAYVYSLGGEYFYWGQGTLVTVSS,high polyreactivity
14,QDQLVESGGGLVQAGGSLRLSCSASGRTFHRNAMGWYRQAPGKERESVAAITGDGRTNYADSVKGRFTISRDNAKNTVYLQMNSLKPEDNAVYYCAARFSYRSYDYWGQGTQVTVSS,low polyreactivity
15,QVQLVESGGGLVHAGGSLRLSCAASGSTFPSYAMGWYRQAPGKERELVAAINSGGGTYYADSVKGRFTISRDNAKNTVYLQRNSLKPEDTAVYYCATSRYDYTKTEGGYWGQGNQVTVSS,low polyreactivity
16,QVQLVESGGGLVQAGGSLRLSCAASGFNFSKYAMGWYRQAPGKERELVARINYNGGSTYYADSVKGRFTISRDNAKNTVYLQMNSLKPEDTAVYYCALVWRFSTRYYYWGQGTQVTVSS,high polyreactivity

row,Sequence,polyreactivity (PSR sort gate)
1,QVQLVESCGGLVQAGGSLRLSCAASGSTFASYAMGWYRQAPGKEREFVAAISRSGGSTYYADSVKGRFTISRDNAKNTVYLQMNSLKPEDTAVYYCAARSPSADEYYYWGQGTQVTVSS,low polyreactivity
2,QVQLVESGGGLVQAGGSLSLSCAASGSIFVRYAMGWSRHAPWKERELVAAISVRGGRTYYAYSVKGRFTISRDNAKNTVYLQMNRLKPEATAVYYCAAQLYYYYSYVPPGGYWGQGTQVTVSA,high polyreactivity
3,QVQLVESGGGLVQAGGSLRLSCAASGSIFIWYAMGWYRQAPGKERELVATITSSGSTNYADSVKGRFTISRDNAKNTVYLQMNSLKPEDTAVYYCAKRGPLRHYSWGQGTQVTVSS,low polyreactivity
4,QVQLVESGGGLVQAGGILRLSCAASGRTFGLYAMGWYRQAPGKERELVAAISWGGGRTYYADSVKGRFTISRDNAKNTVDLQMNSVKPEYTAVYYCNAVYSPRYYVGGYDYWGQGTHVTVSS,high polyreactivity
5,QVQLVDSGGGLVQAGGSLRLSCAASGSISSFYAMGWYRQAPGKERELVAGITSGGSTNYADSVKGRFTISRDNAKNTVYLQMNSLKPEDTAVYYCAAVYKGAGTHFDVFVKEFDYWGQGTQVTVSS,low polyreactivity
6,QVQLVESGGGLVHAGGSLRLSCAASGSIFDWNAMGWYTQAPGKERELVATISWDGGSTYYADSVKGRFTISRDNAKNTVYLQMNSLKPEDTAVYYCATVFTGKPAFYARTKYDYWGQRTQVTVSS,low polyreactivity
7,QVQLVESGGGLVQAGGSLRLSCAASGYTFAGNAMGWYRQAPGKERELVAVITYSGGSTYYADSVKGRFTISRDNAKNTVYSQMNSLKPEDTAVYYCNAVRDRYASDYWGQGTQVTVSS,low polyreactivity
8,QVQLVESGGGLVQAGGSLRLSCAASGSIFYANAMGWYRQAPGKERELVAAISRSGGRTYYADSVKGRFTISRDNAKNTVYLQMNSLKPEDTAVYYCNAVYVSYTYQQTRPRYYYWGQGTQVTVSS,high polyreactivity
9,QVQLVESRGGLVQAGGSLRLSCPASGSIFPDNAMGWYRQAPGKERELDAAITRGGSTYYADSEKGRFTISRDNAKNTVYLQMNSLKPEDTAVYYCAVVRYYVSMDNWGQGTQVTVSS,high polyreactivity
10,QVQLVESSGGLVQAGGSLRLSCAASGRIFQAYAMGWYRQAPGKEREMVAAITGGGSTNYADSVKGRFTISRDNAKNTVYLQMNSLKPEDTAVYYCNAVTGTYGWGPQAREQEDYWGQGTQVTVSS,low polyreactivity
11,QVQLVESGGGLVQAGRSLRLSCPAYGFTFVINDMGWYRQAPGKEREFVADITSGGDTYYADSVKGRFTISRDNAKNTVYLQMNSLKPEDTAVFYCAADIYPDWIYLLYGYWGQGTQVTVSS,low polyreactivity
12,QVQLVETRGGLVQAGGTLRLSCAASGYTVYRYAKGWYRQAPGKERELVAGISRDGGSTYYADSVKGRFTISRDNAKNTVYLQMNSLNPEDTAVYYCAADKTRYRLGRDYWGQGTQVTVSS,low polyreactivity
13,QVQLVESGGGLFQAGGSLRLSCAASGINFYKYSMGWYRQAHRKERELVAAITSGGGRTYYADSVKGRFTISRDNAKNTVYLQMNSLKPEDTAVYYCAATRPASYAAYDYWGQGTQVTVSS,high polyreactivity
14,QVQLVESGGGLVQAGGSLRLSCAASGFIFRLYAMGWYRQAPGKERELVAALSSGTSTYYADSVKGRFTISRDNAKNTVYLQMNSLKPEDSAVYYCAAVPRVNWSRYVYFWYDYWGQGTQVTVSS,high polyreactivity
15,QVQLVESGGGLVQAGGSLRLTCAASGYTFYSYAMGWYRQAPGKERELVAAIRTGGGTNYADSVKGRFTISRDNAMNTVYLQMNSLKPEDTAVYYCAADSFDPAGHVDYWGQGTQVTVSS,low polyreactivity
16,QVQLVESGGGLVQAGGSLRLSCAASGYTFRAYVMGRYRQAPGKEREMVAGITRRGGTTYYADSVKGRFTISRDYAKNTVYLQMNSLKPEDTAVYYCTAVFRSGSIPYVSWGQGTQVTVSS,high polyreactivity

# — the nanobody polyreactivity screen of Harvey et al. (2022)
